Assay results as given in patent CN105131113A (ATTOBIO BIOPHARMACEUTICAL SUZHOU CO LTD, dated 2015).

Assays:
多肽HPV16E7-27 = molecular target: T1, 多肽HPV16E7-27 (HPV16); test: ELISA, peptide coated at 2μg/ml
T1 construct: Peptide of HPV16 E7
T1 peptide: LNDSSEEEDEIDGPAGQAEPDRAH

多肽HPV16E7-5 = molecular target: T2, 多肽HPV16E7-5 (HPV16); test: ELISA, peptide coated at 2μg/ml
T2 construct: Peptide of HPV16 E7
T2 peptide: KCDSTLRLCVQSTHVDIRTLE

多肽His-Vac = molecular target: T3, 多肽His-Vac (HPV16); test: ELISA, peptide coated at 2μg/ml
T3 peptide: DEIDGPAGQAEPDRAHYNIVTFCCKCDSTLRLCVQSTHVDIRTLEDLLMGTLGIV

多肽HPV16E7-1 = molecular target: T4, 多肽HPV16E7-1 (HPV16); test: ELISA, peptide coated at 2μg/ml
T4 construct: Peptide of HPV16 E7
T4 peptide: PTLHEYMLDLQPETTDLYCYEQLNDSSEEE

His-HPV18E7融合蛋白 = molecular target: T5, His-HPV18E7融合蛋白 (HPV18, UniProt P06788 1-105); test: indirect ELISA, antigen coated at 0.5μg/ml, antibody 0.1μg/ml
T5 construct: not shown: His tag
T5 chain: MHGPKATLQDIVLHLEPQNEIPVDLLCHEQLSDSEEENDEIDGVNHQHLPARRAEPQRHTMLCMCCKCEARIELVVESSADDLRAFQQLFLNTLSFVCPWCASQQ

重组蛋白His-HPV16E7 = molecular target: T6, 重组蛋白His-HPV16E7 (HPV16, UniProt P03129 2-98); test: as above
T6 construct: also called His-HPV16E7融合蛋白; His-HPV16E7重组蛋白; not shown: His tag
T6 sequence: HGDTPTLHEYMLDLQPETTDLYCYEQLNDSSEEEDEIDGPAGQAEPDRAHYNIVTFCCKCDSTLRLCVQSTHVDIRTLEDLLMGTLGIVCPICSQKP

细胞内源的HPV16E7蛋白 = molecular target: T7, 细胞内源的HPV16E7蛋白 (HPV16, UniProt P03129 2-98); test: immunocytochemistry on fixed, permeabilised CaSki cells (C-33A as negative control)
T7 construct: Endogenous, intracellular HPV16 E7 in fixed and permeabilised CaSki cells (ICC) or in formalin-fixed paraffin sections of cervical tissue (IHC); as printed it has no initial Met; also called 宫颈癌细胞株CaSki表达的HPV16E7蛋白; 宫颈癌组织中的HPV16E7蛋白
T7 sequence: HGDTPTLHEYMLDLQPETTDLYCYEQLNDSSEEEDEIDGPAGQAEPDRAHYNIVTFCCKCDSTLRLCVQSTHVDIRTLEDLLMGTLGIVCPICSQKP

Measured: binding result

B1: 兔源单克隆抗体RAB-034 (antibody, V domains shown)
VH: QSLEESGGRLVTPGTPLTLTCTVSGIDLSSYAMGWVRQAPGEGLDWIGSIGSSGRTYYANWAKGRFTISKTSSTTVDLKMTSLTTEDTATYFCARGVVNRSDIWGPGTLVTVSS
VL: DPMLTQTASSVSAAVGGTVTISCQSSQSVYDNNWLGWYQQKPGQPPKLLIYGASNLESGVPSRFKGSGSGTQFTLTISDVQCDDAATYYCAGGYSGNRYVFGGGTEVVVK
notes: also called 抗HPV16E7兔单抗RAB-034
binds: His-HPV18E7融合蛋白 | 重组蛋白His-HPV16E7 | 细胞内源的HPV16E7蛋白
no binding (tested: 1μg/ml): 多肽HPV16E7-27 | 多肽HPV16E7-5 | 多肽His-Vac | 多肽HPV16E7-1
